Results as given in patent US20240026017A1 (Kyowa Kirin, published 2024).

T1: human CC chemokine receptor 1 (human CCR1) (human, UniProt P32246 1-355)
T1 construct: endogenous on THP-1 cells in the migration assays; also called hCCR1; CHO-S-hCCR1 (expressing cells)
T1 sequence: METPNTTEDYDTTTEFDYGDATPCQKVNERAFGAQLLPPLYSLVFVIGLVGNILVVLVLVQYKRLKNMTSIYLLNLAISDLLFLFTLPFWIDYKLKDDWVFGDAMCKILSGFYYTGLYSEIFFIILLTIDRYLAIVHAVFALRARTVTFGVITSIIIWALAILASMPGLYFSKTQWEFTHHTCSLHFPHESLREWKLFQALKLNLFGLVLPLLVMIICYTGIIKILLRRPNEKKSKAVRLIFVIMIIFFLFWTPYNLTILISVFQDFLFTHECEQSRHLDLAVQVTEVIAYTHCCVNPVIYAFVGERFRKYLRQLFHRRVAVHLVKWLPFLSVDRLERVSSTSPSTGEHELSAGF


Molecular target: T1, human CC chemokine receptor 1 (human …)
Experiment: flow cytometry on CHO-S-hCCR1 cells; bound = fluorescence 10 times or more that of isotype control hzDNP1
Description: The antigen affinity of the chKM5908′ antibody, which is a VL-substituted chimeric antibody, was measured by flow cytometry using the CHO-S-hCCR1 cells produced in Example 2. The cells were collected by centrifugation, the supernatant was removed, and the cells were suspended in PBS (Staining Medium, hereinafter, abbreviated as SM) containing 2% fetal bovine serum (FBS), 0.05% NaN₃, and 1 mM EDTA. Next, the cells were seeded in a 96-well plate so that the number of cells is 1×10⁵ per well, and the chKM5908′ antibody was added at each final concentration of 10,000, 2,000, 400, 80, 16, and 3.2 ng/mL, and the reaction was performed at 4° C. for 60 minutes. After washing the cells with SM, Goat F (ab′)₂ Anti-Human IgG PE (γ chain specific) (Southern Biotech) diluted 500-fold with SM was added and reacted at 4° C. for 60 minutes. After washing the cells with SM, the cells were resuspended in 50 μL of SM, and the fluorescence intensity was measured by the flow cytometry (FACS Canto II, BD Biosciences).
Next, a modified antibody was obtained using the method described in Example 12-(3). […] Hereinafter referred to as hzDNP1)] were determined to bind to the human CCR1.

Binder | binding result
hzKM5907 LV2bHV2a antibody (antibody, V domains shown, humanized; also called hzmAb5907 LV2bHV2a) VH: EVQLLESGGGLVQPGGSLRLSCAASGFTFSRYGMSWVRQAPGKRLEWVSSISATFTYTYYTDNVKGRFTISRDNSKNTLYLQMNSLRAEDTAVYYCARQDNYAWFDSWGQGTLVTVSS VL: DIVMTQTPLSLPVTSGEPVSISCRSSQSIVHSNGNTFLEWYLKKPGQSPQLLIYKVSSRFSGVPDRFSGSGSGTDFTLKISRVEAEDVGVYYCFQGSHIPWTFGGGTKVEIK | binds
hzKM5907 LV1bHV0 antibody (antibody, V domains shown, humanized; also called hzmAb5907 LV1bHV0) VH: EVQLLESGGGLVQPGGSLRLSCAASGFTFSRYGMSWVRQAPGKGLEWVSSISATFTYTYYTDNVKGRFTISRDNSKNTLYLQMNSLRAEDTAVYYCAKQDNYAWFDSWGQGTLVTVSS VL: DIVMTQTPLSLPVTSGEPASISCRSSQSIVHSNGNTFLEWYLQKPGQSPKLLIYKVSSRFSGVPDRFSGSGSGTDFTLKISRVEAEDVGVYYCFQGSHIPWTFGGGTKVEIK | binds
hzKM5907 LV1cHV7 antibody (antibody, V domains shown, humanized; also called hzmAb5907 LV1cHV7) VH: EVQVLESGGGLVQPGGSLRLSCAASGFTFSRYGMSWVRQAPGKRLEWVASISATFTYTYYTDNVKGRFTISRDNSKNTLYLQMNSLRAEDTGMYYCTRQDNYAWFDSWGQGTLVTVSS VL: DIVMTQTPLSLPVTSGEPVSISCRSSQSIVHSNGNTFLEWYLQKPGQSPQLLIYKVSSRFSGVPDRFSGSGSGTDFTLKISRVEAEDVGVYYCFQGSHIPWTFGGGTKVEIK | binds
hzKM5907 LV1aHV0 antibody (antibody, V domains shown, humanized; also called hzmAb5907 LV1aHV0) VH: EVQLLESGGGLVQPGGSLRLSCAASGFTFSRYGMSWVRQAPGKGLEWVSSISATFTYTYYTDNVKGRFTISRDNSKNTLYLQMNSLRAEDTAVYYCAKQDNYAWFDSWGQGTLVTVSS VL: DIVMTQTPLSLPVTSGEPASISCRSSQSIVHSNGNTFLEWYLKKPGQSPQLLIYKVSSRFSGVPDRFSGSGSGTDFTLKISRVEAEDVGVYYCFQGSHIPWTFGGGTKVEIK | binds
hzKM5907 LV2aHV0 antibody (antibody, V domains shown, humanized; also called hzmAb5907 LV2aHV0) VH: EVQLLESGGGLVQPGGSLRLSCAASGFTFSRYGMSWVRQAPGKGLEWVSSISATFTYTYYTDNVKGRFTISRDNSKNTLYLQMNSLRAEDTAVYYCAKQDNYAWFDSWGQGTLVTVSS VL: DIVMTQTPLSLPVTSGEPASISCRSSQSIVHSNGNTFLEWYLKKPGQSPKLLIYKVSSRFSGVPDRFSGSGSGTDFTLKISRVEAEDVGVYYCFQGSHIPWTFGGGTKVEIK | binds
hzKM5907 LV1bHV7 antibody (antibody, V domains shown, humanized; also called hzmAb5907 LV1bHV7) VH: EVQVLESGGGLVQPGGSLRLSCAASGFTFSRYGMSWVRQAPGKRLEWVASISATFTYTYYTDNVKGRFTISRDNSKNTLYLQMNSLRAEDTGMYYCTRQDNYAWFDSWGQGTLVTVSS VL: DIVMTQTPLSLPVTSGEPASISCRSSQSIVHSNGNTFLEWYLQKPGQSPKLLIYKVSSRFSGVPDRFSGSGSGTDFTLKISRVEAEDVGVYYCFQGSHIPWTFGGGTKVEIK | binds
hzKM5907 LV1cHV0 antibody (antibody, V domains shown, humanized; also called hzmAb5907 LV1cHV0) VH: EVQLLESGGGLVQPGGSLRLSCAASGFTFSRYGMSWVRQAPGKGLEWVSSISATFTYTYYTDNVKGRFTISRDNSKNTLYLQMNSLRAEDTAVYYCAKQDNYAWFDSWGQGTLVTVSS VL: DIVMTQTPLSLPVTSGEPVSISCRSSQSIVHSNGNTFLEWYLQKPGQSPQLLIYKVSSRFSGVPDRFSGSGSGTDFTLKISRVEAEDVGVYYCFQGSHIPWTFGGGTKVEIK | binds
hzmAb5-06 LV2aHV17 antibody (antibody, V domains shown, humanized) VH: QVQLQQSGPGLVKPSQTLSITCTVSGFSLNNYGVHWVRQPPGKGLEWLGVIWSAGTTVYNAAAISRLTISKDDSKSQVSFKMSSLTAADTAIYYCAKDGSRYYTAMDYWGQGTLVTVSS VL: DIVMTQSPLSLPVTLGEPASISCRSSQSLVHRNGITFFHWYLQKPGQSPKLLIYKISNRFSGVPDRFSGSGSGTDFTLKISRVEAEDVGVYYCSQGTHVPPTFGQGTKVEIK | binds
hzmAb5-06 LV0HV17 antibody (antibody, V domains shown, humanized) VH: QVQLQQSGPGLVKPSQTLSITCTVSGFSLNNYGVHWVRQPPGKGLEWLGVIWSAGTTVYNAAAISRLTISKDDSKSQVSFKMSSLTAADTAIYYCAKDGSRYYTAMDYWGQGTLVTVSS VL: DIVMTQSPLSLPVTPGEPASISCRSSQSLVHRNGITFFHWYLQKPGQSPQLLIYKISNRFSGVPDRFSGSGSGTDFTLKISRVEAEDVGVYYCSQGTHVPPTFGQGTKVEIK | binds
hzmAb5-06 LV4HV17 antibody (antibody, V domains shown, humanized) VH: QVQLQQSGPGLVKPSQTLSITCTVSGFSLNNYGVHWVRQPPGKGLEWLGVIWSAGTTVYNAAAISRLTISKDDSKSQVSFKMSSLTAADTAIYYCAKDGSRYYTAMDYWGQGTLVTVSS VL: DIVMTQSPLSLPVTLGEPASISCRSSQSLVHRNGITFFHWYLQKPGQSPKLLIYKISNRFSGVPDRFSGSGSGTDFTLKISRVEAEDVGVYFCSQGTHVPPTFGQGTKLEIK | binds
hzmAb5-06 LV1bHV17 antibody (antibody, V domains shown, humanized) VH: QVQLQQSGPGLVKPSQTLSITCTVSGFSLNNYGVHWVRQPPGKGLEWLGVIWSAGTTVYNAAAISRLTISKDDSKSQVSFKMSSLTAADTAIYYCAKDGSRYYTAMDYWGQGTLVTVSS VL: DIVMTQSPLSLPVTLGEPASISCRSSQSLVHRNGITFFHWYLQKPGQSPQLLIYKISNRFSGVPDRFSGSGSGTDFTLKISRVEAEDVGVYYCSQGTHVPPTFGQGTKVEIK | binds

The remaining lines, values ahead:

binding result | Binder
binds | hzKM5907 LV2aHV7 antibody (antibody, V domains shown, humanized; also called hzmAb5907 LV2aHV7) VH: EVQVLESGGGLVQPGGSLRLSCAASGFTFSRYGMSWVRQAPGKRLEWVASISATFTYTYYTDNVKGRFTISRDNSKNTLYLQMNSLRAEDTGMYYCTRQDNYAWFDSWGQGTLVTVSS VL: DIVMTQTPLSLPVTSGEPASISCRSSQSIVHSNGNTFLEWYLKKPGQSPKLLIYKVSSRFSGVPDRFSGSGSGTDFTLKISRVEAEDVGVYYCFQGSHIPWTFGGGTKVEIK
binds | hzKM5907 LV0HV0 antibody (antibody, V domains shown, humanized; also called hzmAb5907 LV0HV0) VH: EVQLLESGGGLVQPGGSLRLSCAASGFTFSRYGMSWVRQAPGKGLEWVSSISATFTYTYYTDNVKGRFTISRDNSKNTLYLQMNSLRAEDTAVYYCAKQDNYAWFDSWGQGTLVTVSS VL: DIVMTQTPLSLPVTSGEPASISCRSSQSIVHSNGNTFLEWYLQKPGQSPQLLIYKVSSRFSGVPDRFSGSGSGTDFTLKISRVEAEDVGVYYCFQGSHIPWTFGGGTKVEIK
binds | hzKM5907 LV1aHV7 antibody (antibody, V domains shown, humanized; also called hzmAb5907 LV1aHV7) VH: EVQVLESGGGLVQPGGSLRLSCAASGFTFSRYGMSWVRQAPGKRLEWVASISATFTYTYYTDNVKGRFTISRDNSKNTLYLQMNSLRAEDTGMYYCTRQDNYAWFDSWGQGTLVTVSS VL: DIVMTQTPLSLPVTSGEPASISCRSSQSIVHSNGNTFLEWYLKKPGQSPQLLIYKVSSRFSGVPDRFSGSGSGTDFTLKISRVEAEDVGVYYCFQGSHIPWTFGGGTKVEIK
binds | hzKM5907 LV0HV7 antibody (antibody, V domains shown, humanized; also called hzmAb5907 LV0HV7) VH: EVQVLESGGGLVQPGGSLRLSCAASGFTFSRYGMSWVRQAPGKRLEWVASISATFTYTYYTDNVKGRFTISRDNSKNTLYLQMNSLRAEDTGMYYCTRQDNYAWFDSWGQGTLVTVSS VL: DIVMTQTPLSLPVTSGEPASISCRSSQSIVHSNGNTFLEWYLQKPGQSPQLLIYKVSSRFSGVPDRFSGSGSGTDFTLKISRVEAEDVGVYYCFQGSHIPWTFGGGTKVEIK
binds | hzmAb5-06 LV5HV17 antibody (antibody, V domains shown, humanized) VH: QVQLQQSGPGLVKPSQTLSITCTVSGFSLNNYGVHWVRQPPGKGLEWLGVIWSAGTTVYNAAAISRLTISKDDSKSQVSFKMSSLTAADTAIYYCAKDGSRYYTAMDYWGQGTLVTVSS VL: DVVMTQSPLSLPVTLGEPASISCRSSQSLVHRNGITFFHWYLQKPGQSPKLLIYKISNRFSGVPDRFSGSGSGTDFTLKISRVEAEDVGVYFCSQGTHVPPTFGQGTKLEIK
binds | hzmAb5-06 LV1aHV17 antibody (antibody, V domains shown, humanized) VH: QVQLQQSGPGLVKPSQTLSITCTVSGFSLNNYGVHWVRQPPGKGLEWLGVIWSAGTTVYNAAAISRLTISKDDSKSQVSFKMSSLTAADTAIYYCAKDGSRYYTAMDYWGQGTLVTVSS VL: DIVMTQSPLSLPVTPGEPASISCRSSQSLVHRNGITFFHWYLQKPGQSPKLLIYKISNRFSGVPDRFSGSGSGTDFTLKISRVEAEDVGVYYCSQGTHVPPTFGQGTKVEIK
binds | hzmAb5-06 LV2bHV17 antibody (antibody, V domains shown, humanized) VH: QVQLQQSGPGLVKPSQTLSITCTVSGFSLNNYGVHWVRQPPGKGLEWLGVIWSAGTTVYNAAAISRLTISKDDSKSQVSFKMSSLTAADTAIYYCAKDGSRYYTAMDYWGQGTLVTVSS VL: DIVMTQSPLSLPVTPGEPASISCRSSQSLVHRNGITFFHWYLQKPGQSPKLLIYKISNRFSGVPDRFSGSGSGTDFTLKISRVEAEDVGVYFCSQGTHVPPTFGQGTKVEIK
